In a protein production outcome set (Wang et al. 2014):

Experiment: label from the status in PepcDB records
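Note: failed if final PepcDB status was selected cloned or expressed and not failed if soluble or beyond.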

Sequence: MELGFPLLWLSLVLPVLASLTIVALPPRTAYWLVAITLAIPGIVSSYYAFQGVLSEGIIDPVSLNLSNIGIGVVALAVDGFSYPFVLGVSVVTALVAVYGYKYMEVRLREMEGEGERAPGHAAYLILYSIFSSTMLGIAYSLNFLLFIIFLELSLLSSFLLIAFYGYGDRRRIALLYFVWTHIAGALALLGGLYYVIKTGTFDVATVEGGRIVYFSSPADRSVYAAIAGVSLLLGMLVKMAVFGVHMWLPYAHAEAPTPISALLSPNLIGLGGYGIARFAAAFYPWLLEDLKPLLVGLAFVTIVYGGLVALSQLDFKRLLAYSSISQMGYMLLALSTLHPLGFAAASLIFLGHAVGKAVLFMTAGVFITEAHGLRNIARMGGLARLYPLTAAAALIGFLHLAGIPPAFGFWGELYLTLSVLNYPGYSDAVSLGLLAIILIVAFTVTAAYSFITMRRIFFGRPRADMDAREEVDGFKSTVVLLAVLGVALFLLAGPMVTDLAASSLAMVEAFLS
- protein production: failed

Sequence: MELGSVATFSLYPDLYARFRPSYPEELYDWLLPLCPGRQRAWDCATGSGQTAVRLGESFSRVDATDISSSQLSAAEPHTQVYYRECPAEVTPFDDDCFDLICVSQALHWFHLPSFWPEMQRVLKPGGIFAAWGYHHCVVSPEVDRACSVLWSIIEPFWSSRCQLLWDDFRGSGCPLPLLKAPSFTISSDWALDHFLGFLNTTSASKLCKQALGESILDDACQRITRAWGPRNQVRRVDLPLHLMVARKDDAGGYAG
- protein production: failed

Sequence: MELGTPLLLTIAAAGIALLLVLIIRFKIQAFVALLAVSILVAVAAQIPLKDIFTVVTTGVGSTMGKVALLIALGAILGRMIEVSGGVQSLATHFTEKLGAKRVAIALTAVGFLVAIPVFFEVGVIVLVPIVYAFAKIANVHPIKFGLPMAGIMLSIHVAVPPHPGIVAGAGVFGADIGLITLISLIICIPLGFLSYWVASIMNRKDYELLPGVKQQVDEFGSDSLVHVGHDGPGARAIAPPRPGLIMFLIAAPIVQILLGTVGTLTLAKDNYWYGVAAFIGNPFFALLVAVALSFFLLAVRRNWSLKETGEIFEGALPPIASILMVVAAGGVFGEVLRASGIGAALSHTLDSLGLPVIVLGFIISLALRAAQGSATVAIVTTTGLLTSAVMEGGYTPAQIAVIVIAIGFGSLGLSHVTDAGFWTVIRYYGLTVSDGLKTWTVLTTILGLAGFALTYVAWILVGGLGH
- protein production: failed

Sequence: MELKDIMHILEDMKVGVFATLDEYGNPHARHAHITAANEEGIFFMTSPETHFYDQLMGDQRVAMTAISEEGYLIQVVRVEGTARPVENDYLKTVFADNPYYQHIYKDESSDTMQVFQIYAGHGFYHSLTQGHKYIFSIGQGEHSEVRAL
- protein production: not failed

Sequence: MELKDYYAILGVQPTDDLKTIKTAYRRLARKYHPDVSKENDAEAKFKDLAEAWEVLKDEQRRAEYDQLWQHRNDPGFGRQRQTHEQSYSQQDFDDIFSSMFGQQAHQRRRQHAARGHDLEIEVAVFLEETLAEQTRTISYNLPVYNVFGMIESETPKTLNVKIPAGVVDGQRIRLKGQGTPGENGGPNGDLWLVIHIAPHPLFDIVGHNLEIVLPLAPWEAALGAKVTVPTLKESILLTVPPGSQAGQRLRIKGKGLVSKTHTGDLFAVIKIVMPTKPDEKARELWQQLAAAEASFDPRKTWGKA
- protein production: not failed

Sequence: MELKHGYYHLIAILTVAIWGLTFISTKVLINHGLTPQEIFFYRFLIAYLGIWVISPKRLFTNNWQDELWLVAGGIFGGSLYFFTENTALGITQASNVSFIICTAPLLTTILSLLFYKSEKASKGLIYGSLLALMGVGLIVFNGSFVLKISPIGDLLTLLAALSWAFYSLIIKKMAGRYPTIFITRKIFFYGVLTILPAFLLHPLHPDTAVLLQPAVLFNLLFLAVLASLICYVLWNVVLKQLGTVRASNYIYLNPLVTMIASFLILDEKITLVALGGAACIVCGVYWAEKK
- protein production: failed

Sequence: MELKNKKLSLWEAVSMAVGVMIGASIFSIFGVGAKIAGRNLPETFILSGIYALLVAYSYTKLGAKIVSNAGPIAFIHKAIGDNIITGALSILLWMSYVISIALFAKGFAGYFLPLINAPINTFNIAITEIGIVAFFTALNFFGSKAVGRAEFFIVLVKLLILGLFIFAGLITIHPSYVIPDLAPSAVSGMIFASAIFFLSYMGFGVITNASEHIENPKKNVPRAIFISILIVMFVYVGVAISAIGNLPIDELIKASENALAVAAKPFLGNLGFLLISIGALFSISSAMNATIYGGANVAYSLAKDGELPEFFERKVWFKSTEGLYITSALGVLFALLFNMEGVASITSAVFMVIYLFVILSHYILIDEVGGRKEIVIFSFIVVLGVFLLLLYYQWITNRFVFYGIIATFIGVLIFEIIYRKVTKRTFSNNMYVKS
- protein production: not failed

Sequence: MELKVWVDGVQRIVCGVTEVTTCQEVVIALAQAIGRTGRYTLIEKWRDTERHLAPHENPIISLNKWGQYASDVQLILRRTGP
- protein production: not failed

Sequence: MELLRPEATVLSLGRRVLSFDREGRPYHYFREGKTYKRALDGSLHLRYREGERRRRRLAPEEALGVYQEVLDLAEAHLRDERRREEVLRWTPEGLLDPTPYRRAYAWPVSILPPDAYLSVVLQATTGCTWNRCAFCSFYQDRPFQKRTPEAFREHIQAVLALLGRGRLLRRGVFLADGNALALSEPLLPLLELVRAHFPGEPVMGFLDLFTGLKKAPSWWERLGGMGLRRVYIGLETGHAPLLALLRKPGHPKEVLPLVRALKAAGLSVGVILMVGAGGKAFAEAHFRESLALLAELPLGRGDVVYLSPFREDPGTPYAALGLAPLEDLEGELQRWAQAVRRLGLRASRYEIREFLY
- protein production: failed

Sequence: MELLSIVIFGLLIVVSPSADFVLVFKNSAMHSRKAGMLTAIGIGAGVCVHISYSIIGISQLIANNAGLFSLVKYVGAAYLIYIGIAGLLSAKLTLDYGTQLIKPVENRKYIMQGFLCNVLNPKTMIFFLSVFSQLISSHSDSLAFVISYGVYIAVLHGIWFCIVAYLVTSAKATRVLKRFGHRINQACGVGLITFGVILSTND
- protein production: failed

Sequence: MELMKKFTSYTCSPIFVVVACAICLLVGFSINSSIIEIFASVMGIINVWLLSREKVSNFIFGIITVVAYLYIYYNTGLYALAVLACFQVGFNIFGWYYWVKNSDQEDNVVTSGLTKKGQILWTIIILAAWAVWGYVEINILHAQNAILDSLTAVLGLVAQYWLSKKLYENWILWILSNILFIIIYILNGYYVMLILVAIQLILSISGLLEWYASFKEQGENKLTL
- protein production: failed

Sequence: MELNAVKSSYARWAPIYDKTFGAITNVGRHAAVDYINAHDATELLEVGVGTGLSLPNYRPGLKVTGIDFSEEMLAKARAKVESLGLGHVQSLRQMDARDLDFADASFDVVAAMHIISVVPEPERVMAEMARVCKPGGLIVITNHFARDSGMLARVERFAAPFANLLGWHPDFEISSVLKQPDLTVIERKSLPPMGMMTFLVLQKCELEHHHHHH
- protein production: not failed

Sequence: MELNAVKSSYARWAPIYDKTFGAITNVGRHAAVDYINAHDATELLEVGVGTGLSLPNYRPGLKVTGIDFSEEMLAKARAKVESLGLGHVQSLRQMDARDLDFADASFDVVAAMHIISVVPEPERVMAEMARVCKPGGLIVITNHFARDSGMLARVERFAAPFANLLGWHPDFEISSVLKQPLEHHHHHH
- protein production: failed

Sequence: MELQHGQQRHIFEIRLFPEFDKAGMLKSILSVDRDVTATRQGERLLAEENEVLEMIAGNHPLPQTLEQICQMMESQQPGSMCSVLLLEEDGQSLRFAAGLSLPPAYRKLSERVAVGPSVGSCGTAAHWKRTIVVDDIQTSPLWAHALHKVQPFGLRACWSMPIFSSDRQLLGTLATYYREPRSPSQEELALAQRITRIIAIALQRDGHEKQLYRLATQDGLTELNNRRQFIELADREIERSRRHGSRMSVLMMDLDHFKDINDHYGHAVGDEVIRHFSQVCREVLRASDLCGRLGGEEFAAVLPDTGLDDARQVAERLRSLASSARLSAVSGSLGYTVSIGVAERHADETDIDEVLGRADKQLYQAKRDGRNRVSGAAPAHCG
- protein production: failed

Sequence: MELSQRQERIIEIVKTKGPITGEQIADKLNLTRATLRPDLAILTMSGFLEARPRVGYYYSGKSKGKFFNEKLRQFEVKDYMSQPVVLRENTTVYDAICTIFLEDVSTLFIINEDNDFVGVCSRKDLLRASMIGADIHTVPISVNMTRMPNVTYLEESELVIYAADRMIEKEIDSIPIVRKKDNQKYEVIGRISKTTIAKLLVALYKE
- protein production: not failed

Sequence: MELTELLDIGRQERSQQKPVQIRCCTAAGCLSANSQAVQQQLEQAVKAEGLEGEVQVSGVGCMRLCCQGPLVEVEGSGEEKTKQRLYEKVTPEDASAIIGAL
- protein production: failed

Sequence: MELVFDKDGLSAYLEEVFPQIQGEFSIDALAKGEITMRLNVQERHLRPGGTVSGPSMFALADVSVYALVLAHLGREALAVTTNASLDFMRKPESGRDLLGQARLLKLGRTLAVGDILLFSEGMEAPVARSTMTYSIPPKR
- protein production: not failed

Sequence: MEMNRRRSRGFMIAKLMPFCKAVKSPTPSQDLYNNVHYTSSTTTSYARQPDFNNYVTATTPLPPKVSFLLQPSLAPEGKDMEKKLNMMAEKLIGRGINGVDDCVDARAASYISSVRERFKADQYCEKLTTVISLDDEN
- protein production: failed

Sequence: MENDDVMTPPWLTPMLRADYFVTCSIHSQSSKSECNLFCLDCSGNAFCSSCLAHHRTHRVIQIRRSSYHNVVRVSEIQKHIDISCIQTYVINSAKIFFLNARPQCRTGKSLNKTCQICSRNLLDSFLFCSLACKLEGVKNGEDPNLTLFHSGKSDDSSKIINTGICSRLIDGISIAVDDQRSETAGVLSPETPSIESHRNYPMKSRRKGIPQRAPF
- protein production: failed

Sequence: MENEENSAREQEADDFLHIASVKEDWGGDGRGRMNLSGRRTAIAKEYLPRQYQFFDTNTVMEKQGWRVRGMPDNIAPGSRRLLTWHDSGASTSRVVLPPKFEAPSGIFTADLEIFVIKGAIQLGEWQLNKHSYSFIPAGVRIGSWKVLGGEEAEILWMENGSVPLEYKYAQEDHPDARLSDFIPALDSKLLPWGKADTVQFVQANKKWLRKDINGGGVWLLAILPHFDNKYQMIQPYNEEGYCLTGYCDVGDYRIVKDHYWYCPSFSTLPRHITDDGGLFFVRVDRDLSKVATVLSYAPQDT
- protein production: not failed

Sequence: MENETVSELNQTQLQPRAVVALEYQVVTILLVLIICGLGIVGNIMVVLVVMRTKHMRTPTNCYLVSLAVADLMVLVAAGLPNITDSIYGSWVYGYVGCLCITYLQYLGINASSCSITAFTIERYIAICHPIKAQFLCTFSRAKKIIIFVWAFTSLYCMLWFFLLDLNISTYKDAIVISCGYKISRNYYSPIYLMDFGVFYVVPMILATVLYGFIARILFLNPIPSDPKENSKTWKNDSTHQNTNLNVNTSNRCFNSTVSSRKQVTKMLAVVVILFALLWMPYRTLVVVNSFLSSPFQENWFLLFCRICIYLNSAINPVIYNLMSQKFRAAFRKLCNCKQKPTEKPANYSVALNYSVIKESDHFSTELDDITVTDTYLSATKVSFDDTCLASEVSFSQS
- protein production: failed

Sequence: MENGLAQGIGGIAFLVGVMAFWQKDDLRFRYQMMAFCFIMGVHFALLGATVAAIGVVINGIRSFASIKTQSRKVMWFFIALMWLMTLPNMSHFFELLTVIGSSVATWALFSKQGIALRSLILFNSFCWVSHNLWLGSIGGSLVESTFIVTNLLTIYRLFHAQERISQTQNNQFLASNTESSTD
- protein production: failed

Sequence: MENRSHALLAGLFTLALLVAAALVAIWVGRDRAALKPYVIVSATSVSGLSAQSTVRYQGVPVGKVQSLGFNPDKPAQVRISIGVAPDTPITESTWAELGVQGVTGLGNIELRDDGTSTRRLASSAAMPATIPLRPGFFQRFEQRGGEILHNVEQVSARLERLLSNENVQATTATLQNIAAITTDLRQAATELRPALAQVPPLVDSLQAMSRNTGQAAQEIAGLAQAARQALARLDAPDGPLAMATRSMRDIAWAAARLDAQTLPAVSGMASSIDSAARSATTTLRRVGDTPQSLLFGPPPTVPGPGEPGFAGFGR
- protein production: failed

Sequence: MENWDLSSDEMQDGNAPELDVIEEHNPVTRDDENANPEEVVGDTRSPVQNILGKFEGDINKRLHIKRKRMETYIKDSFKDSNVKLEQLWKTNKQERKKINNKFCEQYITTFQKFDMDVQKFNEEQEKSVNNYQKEQQALKLSKCSQSQTLEAIKDMHENYMEGLMNLETNNYNMLFDVDGELRKEMSVFKKDLMKHTLKYSSSFPSSD
- protein production: failed
